Starred links: 1 amine or outer side, 2 acyl side, 3 side chain; linkers in the order of their positions; H or OH if unused. Positions of bridges follow the written chain, without caps; N, C: chain ends. Primed or numbered codes have the meaning given here. PEG2′ = PEG2 spacer at the C-terminus, followed by 3-mercaptopropionate; CH2 = C([*:1])[*:2]
Target: T1, LY6G6D cyclic peptide Ac-RDC*YLGDLC*NS-PEG2-3-mercaptopropionate (bridge 3-9 via CH2; not fully specified; printed as Ac-RDC*YLGDLC*NS-PEG2-3-mercaptopropionate)
T1 construct: Represents the most membrane-proximal stretch of LY6G6D; also called octomer cyclic peptide
T1 peptide: Ac-RDCYLGDLCNS-{PEG2′-3‑mercaptopropionate}
Assay: flow binding assay on cyclic-peptide beads

| Binder | binding result |
| --- | --- |
| CB21-469 (antibody, V domains shown, Cloned into knob/hole human Fc and light chain vectors; IgG and bispecific TCE formats were made; BLI used a monovalent antibody format) VH: EVQLVESGGGLVQPGGSLRLSCAASGFTFSSYAMNWVRQAPGKGLEWVSGISGNGGRIYYADSVKGRFTISRDNSKNTLYLQMNSLRVEDTAVYYCAKDLDVWGKGTTVTVSS VL: DVVMTQTPLSSPVTLGQSASISCRSSQSLVHSDGNTYLNWLHQRPGQPPRLLIYKISNRFSGVPDRFSGSGAGTDFTLKISRVEAEDVGVYYCMQATQFPLTFGGGTKLEIK | binds |
| CB21-498 (antibody, V domains shown, Human Fc formats; monovalent antibody in BLI) VH: EMQLVESGGGLVQPGGSLRLSCAASGFTFSSYAMNWVRQAPGKGLECVSGISGNGGRIYYAESVKGRFTISRDNSKSTFYLQMNSLRAEDTAVYYCAKDLDVWGKGTTVTVSS VL: not shown | binds |
| CB21-500 (antibody, V domains shown, Human Fc formats; monovalent antibody in BLI) VH: EVQLVESGGGLVQPGGSLRLSCAASGFTFSSYAMNWVRQVPGKGLEGVSGMSGSGGRIYYADSVKGRFTMSRDNSKNMVYLQMNSLRAEDTALYYCAKDLDVWGKGTTVTVSS VL: DVVMTQTPLSSPVTLGQPASISCRSSQNLVHSDGNTYLNWLQQRPGQPPRLLIYKISNRFSGVPDRFSGSGAGTDFTLKISRVEAEDVGVYYCMQATQFPLTFGGGTKLEIK | binds |
| CB21-513 (antibody, V domains shown, Human Fc formats; monovalent antibody in BLI) VH: EVQLVDSGGGLVEPGGSLRLSCAASGFTFSSYAMTWVRQAPGKGLEWVSGISGSGGVTDYADSVKGRFTISRDNSKNTLYMQMNSLRAEDTAVYYCAKDLGVWGKGTTVTVSS VL: not shown | binds |
| CB21-522 (antibody, V domains shown, Human Fc formats; monovalent antibody in BLI) VH: EVQLVQSGAEVKKPGASVKVSCKASGYTFTGYFIHWVRQAPGQGLEWMGWINPNSGGTYYAQEFQGRVTMTRDTSISTAYMELIRLRSDDSAVYYCARDISLVGDYWGQGTLVTVSS VL: DVVMTQSPLSLPVTLGQPASISCRSSQSLVYSDGNTYLNWFQQRPGQSPRRLIYKVSNRDSGVPERFSGIGSGTDFTLEISRVEAEDVGVYYCMQGSHWPLTFGGGTKVEIK | binds |
| CB21-512 (antibody, V domains shown, Human Fc formats; monovalent antibody in BLI) VH: EVQLVESGGGVVQPGRSLRLSCAASGFTFSSYGMHWVRQAPGKGLEWVAVLWYDGINKNYADSVKGRFAISRDNSKNTLYLQMNSLRVEDTAVYFCVRVQGDYWGQGTLVTVSS VL: DIQMTQSPSSLSASVGDRVTITCRASQGIRNDLTWYQQKPGKAPKRLIYDTSSLQSGVPSRFSGSRSGTEFTLTISSLQPEDFASYFCLQHNIYPFTFGQGTKLEIK | binds |
| CB21-470 (antibody, V domains shown, Human Fc formats; monovalent antibody in BLI) VH: EVQLVESGGGVVQPGRSLRLSCAASGFTFNSYGMHWVRQAPGKGLEWVAVLWYDGINKNYADSVKGRFAISRDNSKNTLYLQMNSLRVEDTAVYYCVRVQGDYWGQGTLVTVSS VL: DIQMTQSPSSLSASVGDRVTITCRASQGIRNDLTWYQQKPGKAPKRLIYDTSSLQSGVPSRFSGSRSGTEFTLTISSLQPEDFASYFCLQHNSYPFTFGQGTKLEIK | binds |
| CB21-502 (antibody, V domains shown, Human Fc formats; monovalent antibody in BLI) VH: EVQLVESGGGVVQPGRSLRLSCAASGFTFSSYGMHWVRQAPGKGLEWVAVLWYDGINKNYVDSVKGRFAISRDNSKNTLYLQMNSLRVEDTAVYFCVRVQGDYWGQGTLVTVSS VL: DIQMTQSPSSLSASVGDRVTITCRASQGIRNDLTWYQQKPGKAPKRLIYDTSSLQSGVPSRFSGSGSGTDFTLTISSLQPEDFASYFCLQHNIYPFTFGQGTKLEIK | binds |
| CB21-471 (antibody, V domains shown, Human Fc formats; monovalent antibody in BLI) VH: EVQLVESGGGVVQPGRSLRLSCAASGFTFSSYGMHWVRQVPGKGLEWVAVIWYDGSNKDYVDSVKGRFTISRDNSKNTLYLQMNSLRAEDTAVYYCARPGEGDYWGQGTLVTVSS VL: DIQMTQSPSSLSASVGDRVTITCRASQGIRNDFGWYQQKPGKAPKRLIYGASSLQSGVPSRFSGSGSGTEFTLTISSLQPEDFATYYCLQQNSYPWTFGQGTKVEIK | binds |
| CB21-477 (antibody, V domains shown, Human Fc formats; monovalent antibody in BLI) VH: EVQLVESGGGVVQPGRSLRLSCAASGFTFSSYGMHWVRQAPGKGLEWVAVIWYDGSNKDYADSVKGRFTISRDNSKNTLYLQMNSLRAEDTAVYYCARPGEGDYWGQGTLVTVSS VL: DIQMTQSPSSLSASVGDRVTITCRASQGIRNDLGWYQQKPGRAPKRLIYAASSLQSGVPSRFSGSGSGTEFTLTISSLQPEDFATYYCLQQNSYPWTFGQGTKVEIK | binds |
| CB21-499 (antibody, V domains shown, Human Fc formats; monovalent antibody in BLI) VH: EVQLVESGGGVVQPGRSLRLSCAASGFTFSSYGMHWVRQAPGKGLEWVAVIWYDGSNKDYADSVKGRFTISRDNSKNTLYLQMNSLRAEDTAIYYCARPGEGDYWGQGTLVTVSS VL: DIQMTQSPSSLSASVGDRVTITCRASQGVRNDFGWFQQKPGKAPKRLIYGASSLQSGVPSRFSGSGSGTEFTLTISSLQPEDFATYYCLQQNSYPWTFGQGTKLEIK | binds |

Target: T2, Human LY6G6D ectodomain fused to mouse IgG2A Fc (monovalent display, knob-in-hole) (human, biotinylated for BLI capture (site not stated))
T2 chain: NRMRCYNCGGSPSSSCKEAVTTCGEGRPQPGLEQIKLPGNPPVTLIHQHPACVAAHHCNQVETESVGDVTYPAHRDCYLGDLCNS
Assay: BLI, chain shuffle round 1; antigen not named in the table (LY6G6D ectodomain as in Example 3)

| Binder | Kd [nM] | koff [s⁻¹] | kon [M⁻¹ s⁻¹] |
| --- | --- | --- | --- |
| CP1471 (heavy chain from CB21-469, light chain from CB21-500) (antibody, V domains shown, Chain-shuffled antibody) VH: EVQLVESGGGLVQPGGSLRLSCAASGFTFSSYAMNWVRQAPGKGLEWVSGISGNGGRIYYADSVKGRFTISRDNSKNTLYLQMNSLRVEDTAVYYCAKDLDVWGKGTTVTVSS VL: DVVMTQTPLSSPVTLGQPASISCRSSQNLVHSDGNTYLNWLQQRPGQPPRLLIYKISNRFSGVPDRFSGSGAGTDFTLKISRVEAEDVGVYYCMQATQFPLTFGGGTKLEIK | 12.7 | 0.0017 | 134000 |
| CP1473 (heavy chain from CB21-498, light chain from CB21-469) (antibody, V domains shown, Chain-shuffled antibody) VH: EMQLVESGGGLVQPGGSLRLSCAASGFTFSSYAMNWVRQAPGKGLECVSGISGNGGRIYYAESVKGRFTISRDNSKSTFYLQMNSLRAEDTAVYYCAKDLDVWGKGTTVTVSS VL: DVVMTQTPLSSPVTLGQSASISCRSSQSLVHSDGNTYLNWLHQRPGQPPRLLIYKISNRFSGVPDRFSGSGAGTDFTLKISRVEAEDVGVYYCMQATQFPLTFGGGTKLEIK | 0.554 | 8.4e-05 | 152000 |
| CP1474 (heavy chain from CB21-498, light chain from CB21-500) (antibody, V domains shown, Chain-shuffled antibody) VH: EMQLVESGGGLVQPGGSLRLSCAASGFTFSSYAMNWVRQAPGKGLECVSGISGNGGRIYYAESVKGRFTISRDNSKSTFYLQMNSLRAEDTAVYYCAKDLDVWGKGTTVTVSS VL: DVVMTQTPLSSPVTLGQPASISCRSSQNLVHSDGNTYLNWLQQRPGQPPRLLIYKISNRFSGVPDRFSGSGAGTDFTLKISRVEAEDVGVYYCMQATQFPLTFGGGTKLEIK | 0.699 | 9.87e-05 | 141000 |
| CP1475 (heavy chain from CB21-498, light chain from CB21-513) (antibody, V domains shown, Chain-shuffled antibody) VH: EMQLVESGGGLVQPGGSLRLSCAASGFTFSSYAMNWVRQAPGKGLECVSGISGNGGRIYYAESVKGRFTISRDNSKSTFYLQMNSLRAEDTAVYYCAKDLDVWGKGTTVTVSS VL: not shown | 0.91 | 0.000105 | 116000 |
| CP1476 (heavy chain from CB21-500, light chain from CB21-469) (antibody, V domains shown, Chain-shuffled antibody) VH: EVQLVESGGGLVQPGGSLRLSCAASGFTFSSYAMNWVRQVPGKGLEGVSGMSGSGGRIYYADSVKGRFTMSRDNSKNMVYLQMNSLRAEDTALYYCAKDLDVWGKGTTVTVSS VL: DVVMTQTPLSSPVTLGQSASISCRSSQSLVHSDGNTYLNWLHQRPGQPPRLLIYKISNRFSGVPDRFSGSGAGTDFTLKISRVEAEDVGVYYCMQATQFPLTFGGGTKLEIK | 3.15 | 0.000413 | 131000 |
| CP1478 (heavy chain from CB21-500, light chain from CB21-513) (antibody, V domains shown, Chain-shuffled antibody) VH: EVQLVESGGGLVQPGGSLRLSCAASGFTFSSYAMNWVRQVPGKGLEGVSGMSGSGGRIYYADSVKGRFTMSRDNSKNMVYLQMNSLRAEDTALYYCAKDLDVWGKGTTVTVSS VL: not shown | 5.35 | 0.000705 | 132000 |
| CP1479 (heavy chain from CB21-513, light chain from CB21-469) (antibody, V domains shown, Chain-shuffled antibody) VH: EVQLVDSGGGLVEPGGSLRLSCAASGFTFSSYAMTWVRQAPGKGLEWVSGISGSGGVTDYADSVKGRFTISRDNSKNTLYMQMNSLRAEDTAVYYCAKDLGVWGKGTTVTVSS VL: DVVMTQTPLSSPVTLGQSASISCRSSQSLVHSDGNTYLNWLHQRPGQPPRLLIYKISNRFSGVPDRFSGSGAGTDFTLKISRVEAEDVGVYYCMQATQFPLTFGGGTKLEIK | 16.5 | 0.00053 | 32200 |
| CP1481 (heavy chain from CB21-513, light chain from CB21-500) (antibody, V domains shown, Chain-shuffled antibody) VH: EVQLVDSGGGLVEPGGSLRLSCAASGFTFSSYAMTWVRQAPGKGLEWVSGISGSGGVTDYADSVKGRFTISRDNSKNTLYMQMNSLRAEDTAVYYCAKDLGVWGKGTTVTVSS VL: DVVMTQTPLSSPVTLGQPASISCRSSQNLVHSDGNTYLNWLQQRPGQPPRLLIYKISNRFSGVPDRFSGSGAGTDFTLKISRVEAEDVGVYYCMQATQFPLTFGGGTKLEIK | 17.6 | 0.000264 | 15000 |

— patent US20250361298A1 (CARTOGRAPHY BIOSCIENCES, published 2025)
